# Source: patent publication US11733246B2, “Compositions, imaging, and therapeutic methods targeting folate receptor 1 (FOLR1)” (Indi Molecular, Inc., priority 2020, dated 2023)
# Like-named read-outs stand apart in the source and are kept apart here. Numbered stars: 1 amine (or outer) side, 2 acyl side, 3 side chain; on linkers, the order of the positions; unused ones are H or OH. Bridge positions count the residues as written; N and C are the ends. Square brackets hold non-standard residues; d marks the D form. Triazole bridges read from a SMILES are 1,4-linked. Peptide text beside a SMILES is read from it. * marks the point of attachment. DOTA = O=C(O)CN1CCN(CC(=O)O)CCN(CC(=O)*)CCN(CC(=O)O)CC1; Pteroyl = Nc1nc2ncc(CNc3ccc(C(=O)*)cc3)nc2c(=O)[nH]1; Butanoyl(4-(4-MePh)) = Cc1ccc(CCCC(=O)*)cc1; Lys(N3) = [N-]=[N+]=NCCCC[C@H](N)C(=O)O; γGlu = O=C(O)[C@H](CCC(=O)[*:2])N[*:1]; AEEEA = NCCOCCOCCOCC(=O)O; Pra = C#CC[C@H](N)C(=O)O
# What was measured:
# [1] = human, plasma, Plasma Stability (t 1/2)
# Method: (§2) Plasma was thawed in a 37° C. water bath. Residual clots were removed via centrifugation at 4000 rpm for 5 minutes. The pH of the plasma was adjusted to 7.4 if required. Test articles were diluted to 100 μM by diluting a 1 mM working solution (in DMSO) with 45% methanol in water. To 98 μL of plasma was added 2 μL of the 100 μM solution, resulting in 2 μM final concentration of the test article. Samples were incubated at 37° C. in a water bath. At the indicated time points (0, 10, 30, 60, 120 minutes) 100 μL of 4% H3PO4 was added followed by 800 μL of stop solution (200 ng/mL tolbutamide and 200 ng/mL labetalol in 100% acetonitrile). The samples were centrifuged and the plasma protein-free supernatant (100 μL) was subjected to LC-MS/MS analysis.
# [2] = mouse, plasma, Plasma Stability (t 1/2)
# Method: as §2
# [3] = Plasma protein binding (equilibrium dialysis), human; type: in vitro ADME
# Method in brief: (§1)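 Equilibrium dialysis across 12-14 kDa cellulose membranes; test articles at 2 μM in mouse or human plasma adjusted to pH 7.0-8.0, in triplicate. Dialysed 4 hours at 37° C. with slow shaking; both sides quantified by LC-MS/MS to give fraction bound.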
# [4] = Plasma protein binding (equilibrium dialysis), mouse; type: in vitro ADME, CD-1 mouse
# Method in brief: as §1
# human recombinant NEP = human recombinant NEP (Homo sapiens, UniProt P08473); type: biochemical
# human recombinant NEP, sequence (P08473 whole entry): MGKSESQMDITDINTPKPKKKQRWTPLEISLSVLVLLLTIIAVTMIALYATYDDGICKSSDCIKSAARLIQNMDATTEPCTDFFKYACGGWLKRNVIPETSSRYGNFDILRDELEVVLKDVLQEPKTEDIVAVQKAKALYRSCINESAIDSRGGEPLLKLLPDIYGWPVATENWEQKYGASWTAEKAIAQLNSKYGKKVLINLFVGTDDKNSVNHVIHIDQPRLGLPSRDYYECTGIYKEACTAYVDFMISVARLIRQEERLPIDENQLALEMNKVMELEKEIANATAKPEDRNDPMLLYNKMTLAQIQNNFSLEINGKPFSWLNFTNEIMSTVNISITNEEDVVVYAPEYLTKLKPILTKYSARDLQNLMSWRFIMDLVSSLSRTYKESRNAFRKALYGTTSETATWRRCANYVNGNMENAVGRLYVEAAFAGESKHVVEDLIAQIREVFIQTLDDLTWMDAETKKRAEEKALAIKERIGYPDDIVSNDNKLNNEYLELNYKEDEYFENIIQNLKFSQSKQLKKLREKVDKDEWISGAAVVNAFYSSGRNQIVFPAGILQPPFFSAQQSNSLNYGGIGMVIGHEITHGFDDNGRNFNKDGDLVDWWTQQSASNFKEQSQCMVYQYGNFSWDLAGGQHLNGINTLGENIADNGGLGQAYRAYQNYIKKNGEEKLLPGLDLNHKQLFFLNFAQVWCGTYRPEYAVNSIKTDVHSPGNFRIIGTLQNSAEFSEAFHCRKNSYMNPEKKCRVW
# Method in brief: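 Peptide bearing GFK linker (10 μM) incubated with recombinant human NEP (10, 1, 0.1, 0.01 nM or none) at 37° C. for 1 h. Cleavage tracked by MALDI-MS, cleaved adduct identified by mass, and by HPLC as parent-peak depletion with new-peak appearance; non-cleavable PEG3 linker assayed for specificity.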
smiles,measurement,setting,value
"Cc1ccc(CCCC(=O)NCCCC[C@H](NC(=O)COCCOCCOCCNC(=O)[C@@H]2CCCCn3cc(nn3)C[C@H](NC(=O)CC[C@H](NC(=O)c3ccc(NCc4cnc5nc(N)[nH]c(=O)c5n4)cc3)C(=O)O)C(=O)N[C@H](Cc3c[nH]cn3)C(=O)N[C@H](CO)C(=O)N[C@H](Cc3c[nH]cn3)C(=O)N[C@H]([C@H](C)O)C(=O)N[C@H](C)C(=O)N2)C(=O)N[C@@H](CCCCNC(=O)CN2CCN(CC(=O)O)CCN(CC(=O)O)CCN(CC(=O)O)CC2)C(N)=O)cc1 [compound #2809, Fol-hshta-PEG3-Lys(4-MPBA)-Lys(DOTA)] ({Pteroyl-γGlu}-[Pra][dH][dS][dH][dT][dA][Lys(N3)][AEEEA]K(Butanoyl(4-(4-MePh)))K(DOTA)-NH2; triazole 1-7)",half-life,[1],> 289 min
same,half-life,[2],> 289 min
same,recovery,[3],85.8%
same,fraction unbound,"[3]; human, plasma",0.167
same,recovery,[4],108%
same,fraction unbound,"[4]; mouse, plasma",0.0791
same,NEP-mediated cleavage (site / susceptibility),human recombinant NEP,unchanged
same,in vitro Assay Data (NEP assay),human recombinant NEP,resistant to NEP
